Experiment [1] deals with T1, Epidermal Growth Factor Receptor variant III (EGFRvIII) (UniProt P00533 25-1210).
T1 construct: whole, on cells
As to the kind of experiment: flow cytometry on 293T^EGFRvIII cells, anti-myc and anti-biotin detection. As to the method:
The bound antibodies were detected either via their myc-epitope using anti-myc/FITC antibody or via their biotin residue using anti-biotin/PE antibody (1:10; Miltenyi Biotec, Bergisch Gladbach, Germany). Cells stained only with secondary antibody were included as a control. […] At least 10,000 stained cells were measured by flow cytometry (MACSQuant, Miltenyi Biotec, Bergisch Gladbach, Germany) and analyzed by FlowJo software version 7.6.5 (TreeStar Inc., Ashland, USA).
In this case the AM1-antibodies served as negative controls. Binding of scFvs and of scFv-P-BAPs was visualized with secondary anti-myc-PE (grey histograms in upper and middle graphs). […] Open histograms represent control staining only using secondary antibodies or an IgG-PE isotype control. […] Recombinant proteins were separated using SDS-PAGE, with parental single chain antibodies serving as controls. Blots were subsequently stripped and re-probed with biotin antibodies.
In general terms: Flow cytometry measures light scatter and fluorescence of single cells or particles in a stream.

In experiment [2] the target is T2, Prostate Stem Cell Antigen (PSCA) (human, UniProt O43653 12-83).
T2 construct: whole, on cells
T2 sequence (looked up): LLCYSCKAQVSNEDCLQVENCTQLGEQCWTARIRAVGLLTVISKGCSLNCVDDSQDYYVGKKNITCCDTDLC
As to the kind of experiment: flow cytometry titration on 293T^PSCA cells, anti-myc-PE detection (Example 7, FIG. 9). As to the method: After detection with a secondary anti-myc-PE-antibody the MFIs were determined using a MACSQuant Cytometer (Miltenyi Biotech) and FlowJo software and the Kd values were calculated with the PRISM software program. FIG. 9 depicts the graphs for the KD value calculations.

B1: scFv(MR1.1)-P-BAP (scFv)
scFv: DAAQPARRARRTKLGTELGSHMQVKLQQSGGGLVKPGASLKLSCVTSGFTFRKFGMSWVRQTSDKRLEWVASISTGGYNTYYSDNVKGRFTISRENAKNTLYLQMSSLKSEDTALYYCTRGYSPYSYAMDYWGQGTTVTVSSSGGGSGGGGSGGGGSDIELTQSPASLSVATGEKATIRCMTSTDIDDDMNWYQQKPGEPPKFLISEGNTLRPGVPSRFSSSGTGTDFVFTIENTLSEDVGDYYCLQSWNVPLTFGDGTKLEITKLSSKLKVTVNGTAYDVDVDVDKSHENPMGTILFGGGTGGAPAPAAGGAGAGKAGEGEIPAPLAGTVSKILVKEGDTVKAGQTVLVLEAMKMETEINAPTDGKVEKVLVKERDAVQGGQGLIKIGDLELIEGSSGPEQKLISEEDLNSAVDHHHHHH
modifications: mono-biotinylated at the C-terminal P-BAP (PSTCD biotin acceptor domain)
notes: EGFRvIII-specific scFv fused to P-BAP
As to B1, in experiment [1], the binding result was “binds”.

B2: scFv(AM1)-P-BAP (scFv)
scFv: DAAQPARRARRTKLGTELGSQVKLQESGGGLVQPGGSLKLSCVASGFTFSSYTMSWVRRTPEKRLEWVAYIHNGGGHTYYPDTIKGRFTISRDNAKNTLFLEMSSLKSEDTAMYYCTRRMYYGNSHWYFDVWGAGTSVTVSSAKTTPPSVYGGGGSGGGGSGGGGSTNSDIVMTQSPSSLSASLGDRVTINCRTSQDISNYLNWYQLTPDGTVKLLIYYTLKLNSGVPSRFSGSGSGTDYSLTINNLEKEDFATYFCQQSKTLPWTFGGGTKLEIKRADAAPTVSGPKLSSKLKVTVNGTAYDVDVDVDKSHENPMGTILFGGGTGGAPAPAAGGAGAGKAGEGEIPAPLAGTVSKILVKEGDTVKAGQTVLVLEAMKMETEINAPTDGKVEKVLVKERDAVQGGQGLIKIGDLELIEGSSGPEQKLISEEDLNSAVDHHHHHH
modifications: mono-biotinylated at the C-terminal P-BAP (PSTCD biotin acceptor domain) when produced in 293T-huBirA cells
notes: PSCA-specific murine scFv derived from 7F5, fused to P-BAP, with myc tag and His6; also called murine scFv(AM1)-BAP
With B2, the binding result in experiment [1] is “no binding (tested: 1 µg scFv on 2×10^5 cells)”.

B3: scFv(h-AM1)-BAP (scFv)
scFv: DAAQPARRARRTKLGTELGSEVQLLESGGGLVQPGGSLRLSCVASGFTFSSYTMSWVRQAPGKGLEWVSYIHNGGGHTYYADSVKGRFTISRDNSKNTLYLQMNSLRAEDTAVYYCTRRMYYGNSHWYFDVWGAGTRVTITSAKTTPPSVYGGGGSGGGGSGGGGSTNSDIQMTQSPSSLSASVGDRVTITCRTSQSISNYLNWYQQKPGKAPKLLIYYTLKLNSGVPSRFSGSGSGTDFTLTISSLQPEDFATYYCQQSKTLPWTFGGGTKLEIKRADAAPTVSGPEQKLISEEDLNSAVDMSGLNDIFEAQKIEWHEGAPSSHHHHHH
modifications: mono-biotinylated at the C-terminal BAP (Bio-Tag)
notes: Fully humanized PSCA-specific scFv with N-terminal Ig kappa leader in the construct and C-terminal c-Myc tag, Bio-Tag and His6; also called humanized scFv(h-AM1)
Consider B3, for which, in experiment [2], the “fold better affinity (KD value) than the parental murine scFv(AM1)” value came to 100 fold.

The values above are taken from US20230338553A1 (TECHNISCHE UNIVERSIT T DRESDEN, published 2023).
